Results as given in doi:10.1101/2021.05.24.445460 (bioRxiv, 2021).

Biological target: repeat-domain of Tau (Tau^RD) (human, UniProt P10636-8 244-373)
Experiment: co-IP

Chain of repeat-domain of Tau (Tau^RD) (P10636 561-690): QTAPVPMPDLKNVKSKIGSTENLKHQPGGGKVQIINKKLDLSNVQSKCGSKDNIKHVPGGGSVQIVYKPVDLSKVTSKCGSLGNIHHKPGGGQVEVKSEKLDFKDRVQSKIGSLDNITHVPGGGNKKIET

B1: microglial P2Y12 receptor (receptor, mouse (endogenous in N9), UniProt Q9CPV9 1-347, looked up)
chain: MDVPGVNTTSANTTFSPGTSTLCVRDYKITQVLFPLLYTVLFFAGLITNSLAMRIFFQIRSKSNFIIFLKNTVISDLLMILTFPFKILSDAKLGAGPLRTLVCQVTSVTFYFTMYISISFLGLITIDRYLKTTRPFKTSSPSNLLGAKILSVVIWAFMFLISLPNMILTNRRPKDKDVTKCSFLKSEFGLVWHEIVNYICQVIFWINFLIVIVCYSLITKELYRSYVRTRGSAKVPKKKVNVKVFIIIAVFFICFVPFHFARIPYTLSQTRAVFDCSAENTLFYVKESTLWLTSLNACLDPFIYFFLCKSFRNSLTSMLRCSNSTSTSGTNKKKGQEGGEPSEETPM
- fold band intensity against cell control, 1 uM Tau^RD: 1.2 fold
- fold band intensity against cell control, 5 uM Tau^RD: 2 fold
